Source: the supplement of paper PMC7877785
± gives the uncertainty stated by the source.

Assay: self-splicing fitness, log relative to wild type (ln ratio); higher = more splicing; Tetrahymena group I intron in knt gene, E. coli kanamycin selection, DiMSum; sequences stand for … in CUCUCU…GGAGGGAAAAGUUAUCAGGCAUGCACCUGGUAGCUAGUCUUUAAACCAAUAGAUUGCAUCGGUUUAAAAGGCAAGACCGUCAAAUUGCGGGAAAGGGGUCAACAGCCGUUCAGUACCAAGUCUCAGGGGAAACUUUGAGAUGGCCUUGCAAAGGGUAUGGUAAUAAGCUGACGGACAUGGUCCUAACCACGCAGCCAAGUCCUAAGUCAACAGAUCUUCUGUUGAUAUGGAUGCAGUUCACAGACUAAAUGUCGGUCGGGGAAGAUGUAUUCUUCUCAUAAGAUAUAGUCGGACCUCUCCUUAAUGGGAGCUAGCGGAUGAAGUGAUGCAACACUGGAGCCGCUGGGAACUAAUUUGUAUGCGAAAGUAUAUUGAUUAGUUUUGGAGUACUCGUGGUCG
In short: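 Colonies from six replicate transformations of E. coli BL21(DE3) were pooled and amplicon-sequenced on an Illumina HiSeq 2500. The library placed an intron with all eight P1ex-region nucleotides randomised inside the knt kanamycin-resistance gene on pET-22b(+), and cells grew overnight at 37°C or 30°C on LB agar with or without 25 μg/mL kanamycin (plus 100 μg/mL carbenicillin, 50 μM IPTG, 0.2% rhamnose). Fitness is the DiMSum error-weighted combination of wild-type-normalised replicate fold changes, kanamycin versus none.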

Sequence	self-splicing fitness (ln) (30 °C)	self-splicing fitness (ln) (37 °C)
GUUUAGCAAUAUUACGGAAG	-2.59 ± 0.23	-0.848 ± 0.22
AUUAAGCAAUAUUACGGCUU	-0.718 ± 0.088	0.207 ± 0.12
AGUGAGCAAUAUUACGACAU	-1.07 ± 0.014	-0.531 ± 0.034
AAACAGCAAUAUUACGGGCG	-2.12 ± 0.09	-1.41 ± 0.12
ACUCAGCAAUAUUACGACUG	-3.86 ± 0.23	-1.47 ± 0.14
UGUCAGCAAUAUUACGUGAG	-0.0851 ± 0.056	0.251 ± 0.072
GAAGAGCAAUAUUACGCUAG	-4.24 ± 0.37	-1.13 ± 0.21
UCCCAGCAAUAUUACGAAAU	-3.28 ± 0.16	-1.76 ± 0.2
GCAUAGCAAUAUUACGGCCU	-1.44 ± 0.11	-0.683 ± 0.11
GGAAAGCAAUAUUACGUGAG	-1.22 ± 0.047	-0.225 ± 0.069
UUAAAGCAAUAUUACGACGC	-0.776 ± 0.077	0.177 ± 0.11
AGCGAGCAAUAUUACGAAGU	-3.59 ± 0.29	-1.57 ± 0.21
UGUAAGCAAUAUUACGCGUA	-0.832 ± 0.14	-0.754 ± 0.15
CUCUAGCAAUAUUACGAGAG	-2.9 ± 0.18	-1.69 ± 0.2
UCACAGCAAUAUUACGGUUU	-2.56 ± 0.068	-1.15 ± 0.067
GCACAGCAAUAUUACGACCA	-0.551 ± 0.11	-0.554 ± 0.14
AUGAAGCAAUAUUACGAGGC	-4.11 ± 0.27	-2.77 ± 0.23
UACCAGCAAUAUUACGGACU	-0.102 ± 0.073	0.199 ± 0.098
CCCCAGCAAUAUUACGUGUC	-4.78 ± 0.2	-2.53 ± 0.15
AAUAAGCAAUAUUACGGUAG	-3.77 ± 0.24	-1.95 ± 0.21
UAUUAGCAAUAUUACGAUUC	-1.88 ± 0.16	-0.062 ± 0.18
UCAUAGCAAUAUUACGGUUU	-3.72 ± 0.28	-1.92 ± 0.22
AGGAAGCAAUAUUACGGACA	-0.516 ± 0.12	-0.384 ± 0.15
GGUUAGCAAUAUUACGACGA	-1.15 ± 0.18	0.349 ± 0.21
UCGUAGCAAUAUUACGUAUG	-2.04 ± 0.14	-1.93 ± 0.2

Sequence	self-splicing fitness (ln) (30 °C)	self-splicing fitness (ln) (37 °C)
CCUGAGCAAUAUUACGUCUU	–	-2.42 ± 0.23
UAGAAGCAAUAUUACGGGUC	-3.55 ± 0.33	-2.84 ± 0.44
GCCCAGCAAUAUUACGGAAC	-1 ± 0.055	-0.0936 ± 0.079
UGGUAGCAAUAUUACGUAUU	-3.07 ± 0.14	-1.84 ± 0.17
UAUGAGCAAUAUUACGUAUG	-2.35 ± 0.22	-1.58 ± 0.27
UUGCAGCAAUAUUACGCCCA	-1.28 ± 0.21	-0.155 ± 0.25
UCUGAGCAAUAUUACGACCU	–	-2.62 ± 0.31
AGCCAGCAAUAUUACGUAAG	-2.38 ± 0.057	-1.34 ± 0.078
GAUAAGCAAUAUUACGGUCC	–	-3.48 ± 0.46
UCAGAGCAAUAUUACGCGGU	-4.12 ± 0.33	-3.04 ± 0.32
UCCUAGCAAUAUUACGUUCG	-1.03 ± 0.16	-2.28 ± 0.28
GGAUAGCAAUAUUACGGUUU	-1.22 ± 0.093	-0.329 ± 0.11
UCUUAGCAAUAUUACGCAGA	-1.55 ± 0.46	-1.36 ± 0.29
GCAGAGCAAUAUUACGCUUU	–	-3.01 ± 0.27
UUCCAGCAAUAUUACGUGGG	-3.68 ± 0.18	-2.56 ± 0.16
UAUAAGCAAUAUUACGUUAA	-2.59 ± 0.15	-1.5 ± 0.14
CCCAAGCAAUAUUACGAUUC	-3.69 ± 0.25	-2.1 ± 0.26
AUUAAGCAAUAUUACGAUAG	-3.89 ± 0.37	-2.55 ± 0.31
UAACAGCAAUAUUACGUAUC	-3.56 ± 0.19	-2.43 ± 0.15
CAUUAGCAAUAUUACGGAAC	–	-0.879 ± 0.24
GGGUAGCAAUAUUACGGUAC	-2.04 ± 0.12	-0.23 ± 0.15
AGUAAGCAAUAUUACGGCUG	-0.953 ± 0.11	-0.941 ± 0.12
AACCAGCAAUAUUACGAUAG	-2.87 ± 0.16	-2.11 ± 0.15
GAGCAGCAAUAUUACGUGUC	-2.9 ± 0.12	-2.01 ± 0.12
AGUUAGCAAUAUUACGUUCU	-0.403 ± 0.1	-0.302 ± 0.11

Sequence	self-splicing fitness (ln) (30 °C)	self-splicing fitness (ln) (37 °C)
ACUCAGCAAUAUUACGCCAC	-2.88 ± 0.21	–
UAGGAGCAAUAUUACGAACG	-0.534 ± 0.12	-0.578 ± 0.19
CAUCAGCAAUAUUACGUUAU	-3.34 ± 0.12	-2.02 ± 0.11
CCGGAGCAAUAUUACGUUAC	-3.75 ± 0.2	-1.67 ± 0.2
AUUAAGCAAUAUUACGGGUU	-2.34 ± 0.23	-2.92 ± 0.38
CUGGAGCAAUAUUACGGACG	-1.4 ± 0.11	-0.808 ± 0.11
GCGGAGCAAUAUUACGAAUU	–	-1.1 ± 0.33
GGCUAGCAAUAUUACGGACC	-1.67 ± 0.14	-0.619 ± 0.2
GCAUAGCAAUAUUACGUGGG	-3.68 ± 0.13	-2.82 ± 0.11
GUGAAGCAAUAUUACGUUCU	-0.0481 ± 0.072	-0.218 ± 0.086
GCUGAGCAAUAUUACGCUUU	-2.42 ± 0.12	-2.33 ± 0.18
CAGAAGCAAUAUUACGAGCC	-3.03 ± 0.47	-1.82 ± 0.27
GUUCAGCAAUAUUACGACUA	-1.28 ± 0.17	-0.368 ± 0.15
GCAGAGCAAUAUUACGACUC	-1.83 ± 0.15	-1.38 ± 0.17
ACUAAGCAAUAUUACGGGUG	-0.981 ± 0.06	-0.673 ± 0.097
CAAAAGCAAUAUUACGGUUG	-1.66 ± 0.11	-1.17 ± 0.14
CGUGAGCAAUAUUACGGUGC	-4.97 ± 0.41	-3.39 ± 0.17
ACCCAGCAAUAUUACGCCCG	-2.3 ± 0.18	-1.22 ± 0.19
GAGUAGCAAUAUUACGUUGA	-2.27 ± 0.27	-2.76 ± 0.36
CCGGAGCAAUAUUACGUACA	-3.36 ± 0.4	–
UGAUAGCAAUAUUACGUUGA	-3.42 ± 0.19	-1.91 ± 0.14
UCGGAGCAAUAUUACGGUGU	-3.4 ± 0.31	-1.7 ± 0.37
GUCAAGCAAUAUUACGUUUG	–	-3.38 ± 0.2
CAAUAGCAAUAUUACGGCUC	-1.08 ± 0.15	-0.901 ± 0.23
ACUAAGCAAUAUUACGAUGG	-0.371 ± 0.1	-0.661 ± 0.16

Sequence	self-splicing fitness (ln) (30 °C)	self-splicing fitness (ln) (37 °C)
CUGGAGCAAUAUUACGUAAG	-1.06 ± 0.083	-0.0976 ± 0.1
AACCAGCAAUAUUACGAGAU	-1.96 ± 0.078	-0.239 ± 0.083
AAUUAGCAAUAUUACGGACU	-0.43 ± 0.087	0.51 ± 0.14
CUUUAGCAAUAUUACGGCCC	-1.71 ± 0.47	–
GCCGAGCAAUAUUACGGUGC	-2.75 ± 0.24	-2.48 ± 0.29
CGAAAGCAAUAUUACGUGAG	-0.204 ± 0.048	-0.102 ± 0.071
AAUUAGCAAUAUUACGGAGG	-3.68 ± 0.39	-1.87 ± 0.25
UGUUAGCAAUAUUACGGCCU	-0.213 ± 0.27	0.286 ± 0.25
CACAAGCAAUAUUACGCCCG	-0.276 ± 0.12	0.193 ± 0.15
ACGCAGCAAUAUUACGCCUC	-2.83 ± 0.17	-1.22 ± 0.19
CUCGAGCAAUAUUACGUUUA	-3.22 ± 0.41	-3.05 ± 0.4
UGAGAGCAAUAUUACGAUGG	-3.59 ± 0.23	-2.72 ± 0.2
CGCUAGCAAUAUUACGUUGU	-3.3 ± 0.2	-1.59 ± 0.18
GUAUAGCAAUAUUACGGGUC	-1.89 ± 0.2	-1.62 ± 0.39
CAACAGCAAUAUUACGCAAC	-3.4 ± 0.23	-2.53 ± 0.33
AUAAAGCAAUAUUACGUGGC	-3.27 ± 0.13	-2.69 ± 0.16
AGAGAGCAAUAUUACGAACU	-1.81 ± 0.2	-1.57 ± 0.2
UAAUAGCAAUAUUACGGCUU	-0.901 ± 0.096	-0.115 ± 0.13
GAACAGCAAUAUUACGGAGG	-3.02 ± 0.14	-2.54 ± 0.2
CUAUAGCAAUAUUACGGAAG	-1.87 ± 0.12	-0.957 ± 0.13
ACUGAGCAAUAUUACGGAUA	-3.08 ± 0.28	-1.77 ± 0.26
GUCGAGCAAUAUUACGGAAG	-3.26 ± 0.26	-2.35 ± 0.28
ACCUAGCAAUAUUACGUCAG	-3.93 ± 0.19	-1.85 ± 0.1
